Experiment: Safety assessment after i.p. peptide mixture in mice
Conditions: positive control, same conditions, day 7
Experimental: To assess potential immunogenicity following peptide administration, we performed enzyme-linked immunosorbent assays (ELISA) to measure peptide-specific IgG responses.
(E) Detection of peptide-specific IgG in plasma by ELISA following peptide or control antigen administration.
Mice were injected (i.p.) with human-derived or viral-derived peptide mixtures, or OVA protein (InvivoGen #vac-pova). Plasma was collected at 24 h for cytokine analysis (BD #552364) and at day 7 for peptide- or OVA-specific antibody detection via direct ELISA.

B1: OVA: OVA protein (InvivoGen #vac-pova), positive control (protein, UniProt P01012 2-386, looked up)
Ovalbumin: GSIGAASMEFCFDVFKELKVHHANENIFYCPIAIMSALAMVYLGAKDSTRTQINKVVRFDKLPGFGDSIEAQCGTSVNVHSSLRDILNQITKPNDVYSFSLASRLYAEERYPILPEYLQCVKELYRGGLEPINFQTAADQARELINSWVESQTNGIIRNVLQPSSVDSQTAMVLVNAIVFKGLWEKAFKDEDTQAMPFRVTEQESKPVQMMYQIGLFRVASMASEKMKILELPFASGTMSMLVLLPDEVSGLEQLESIINFEKLTEWTSSNVMEERKIKVYLPRMKMEEKYNLTSVLMAMGITDVFSSSANLSGISSAESLKISQAVHAAHAEINEAGREVVGSAEAGVDAASVSEEFRADHPFLFCIKHIATNAVLFFGRCVSP
OVA-specific antibody response (direct ELISA): robust antibody response

Source: paper PMC13572001, “Sequence-based artificial intelligence-guided inhibitory peptides to counteract AAV neutralizing antibodies in gene therapy” (Molecular Therapy Advances, 2026)
